Measurements from US20080020964A1, “Test System for the Discovery of Substances for the Promotion of Neuraxonal Growth” (priority 2003, published 2008).

B1: hnRNP-R: heterogeneous nuclear ribonucleic protein R, epitope-tagged wildtype form overexpressed from an expression plasmid (protein, UniProt O43390 2-633, looked up)
Heterogeneous nuclear …: ANQVNGNAVQLKEEEEPMDTSSVTHTEHYKTLIEAGLPQKVAERLDEIFQTGLVAYVDLDERAIDALREFNEEGALSVLQQFKESDLSHVQNKSAFLCGVMKTYRQREKQGSKVQESTKGPDEAKIKALLERTGYTLDVTTGQRKYGGPPPDSVYSGVQPGIGTEVFVGKIPRDLYEDELVPLFEKAGPIWDLRLMMDPLSGQNRGYAFITFCGKEAAQEAVKLCDSYEIRPGKHLGVCISVANNRLFVGSIPKNKTKENILEEFSKVTEGLVDVILYHQPDDKKKNRGFCFLEYEDHKSAAQARRRLMSGKVKVWGNVVTVEWADPVEEPDPEVMAKVKVLFVRNLATTVTEEILEKSFSEFGKLERVKKLKDYAFVHFEDRGAAVKAMDEMNGKEIEGEEIEIVLAKPPDKKRKERQAARQASRSTAYEDYYYHPPPRMPPPIRGRGRGGGRGGYGYPPDYYGYEDYYDDYYGYDYHDYRGGYEDPYYGYDDGYAVRGRGGGRGGRGAPPPPRGRGAPPPRGRAGYSQRGAPLGPPRGSRGGRGGPAQQQRGRGSRGSRGNRGGNVGGKRKADGYNQPDSKRRQTNNQQNWGSQPIAQQPLQQGGDYSGNYGYNNDNQEFYQDTYGQQWK
modifications: epitope tag
B2: hnRNP-Q: heterogeneous nuclear ribonucleic protein Q, epitope-tagged wildtype form overexpressed from an expression plasmid (protein, UniProt O60506 2-623, looked up)
Heterogeneous nuclear …: ATEHVNGNGTEEPMDTTSAVIHSENFQTLLDAGLPQKVAEKLDEIYVAGLVAHSDLDERAIEALKEFNEDGALAVLQQFKDSDLSHVQNKSAFLCGVMKTYRQREKQGTKVADSSKGPDEAKIKALLERTGYTLDVTTGQRKYGGPPPDSVYSGQQPSVGTEIFVGKIPRDLFEDELVPLFEKAGPIWDLRLMMDPLTGLNRGYAFVTFCTKEAAQEAVKLYNNHEIRSGKHIGVCISVANNRLFVGSIPKSKTKEQILEEFSKVTEGLTDVILYHQPDDKKKNRGFCFLEYEDHKTAAQARRRLMSGKVKVWGNVGTVEWADPIEDPDPEVMAKVKVLFVRNLANTVTEEILEKAFSQFGKLERVKKLKDYAFIHFDERDGAVKAMEEMNGKDLEGENIEIVFAKPPDQKRKERKAQRQAAKNQMYDDYYYYGPPHMPPPTRGRGRGGRGGYGYPPDYYGYEDYYDYYGYDYHNYRGGYEDPYYGYEDFQVGARGRGGRGARGAAPSRGRGAAPPRGRAGYSQRGGPGSARGVRGARGGAQQQRGRGVRGARGGRGGNVGGKRKADGYNQPDSKRRQTNNQNWGSQPIAQQPLQGGDHSGNYGYKSENQEFYQDTFGQQWK
modifications: epitope tag

Columns and labels:
PC12 cells [1] = test: Neurite growth in PC12 cells transiently transfected with Smn or hnRNP-R and -Q; assay type: cell-based, rat; details: transient overexpression, differentiation with 50 ng/ml NGF for three days
Protocol: Rat pheochromocytoma cells (PC12) were cultivated in DMEM (Invitrogen, Carlsbad, Calif., USA)+10% horse serum+5% fetal calf serum+antibiotics. Before the transfection, the cells were plated out in a high density in 24-well culture dishes and transfected with 1 μg plasmid DNA (Lipofectamine 2000; Invitrogen, Carlsbad, Calif., USA). For this purpose, expression plasmids were used, into which wildtype forms marked with epitope tags (HA tag of FLAG tag) or mutated versions of Smn, hnRNP-R or hnRNP-Q have been cloned. On the day after the transfection, the cells were plated out in 35 mm culture dishes on glass plates coated with poly-DL-or nithine in a density of 1,000 cells/cm^2. As a differentiation medium, DMEM+2% horse serum and 1% fetal calf serum+50 ng/ml NGF+antibiotics were used. After three days, the cells were fixed and stained. The PC12 cells were fixed with 4% paraformaldehyde (PFA) in buffered common salt solution (PBS). […] After washing again with TBS-T, the cells were embedded in Mowiol and evaluated at the fluorescence microscope or the confocal microscope as mentioned above.

PC12 cells [2] = test: Neurite growth in Smn or hnRNP-R or -Q overexpressing stable PC12 cell lines; assay type: cell-based, rat; details: differentiated seven days
Protocol: For preparing stable cell lines, PC12 cells were cultivated as described above, and transfected with expression vectors for the wildtype form or mutated Smn, hnRNP-R or hnRNP-Q. Thereafter, the cells were selected in a small cell density with the antibiotic G418 with regard to their neomycin resistance. Individual clones were tested by Western blot analysis for their stable expression of the constructs to be expressed. For measuring the neurite length, the cells were plated out as described above on coated glass plates, differentiated by the addition of differentiation medium and fixed, stained after seven days, and the neurite growth was quantified as described above.

PC12 cell lines = test: β-actin content in neurites and growth cones of cultivated PC12 cell lines (immunostaining); assay type: cell-based, rat; details: stable PC12 cell lines, anti-actin / anti-β-actin antibodies
Protocol: The cultivation of PC12 cell lines and the fixation, staining and evaluation was performed as described above. As antibodies, monoclonal anti-Smn antibodies (BD Biosciences, Lexington, Ky., USA, 1:500), rabbit anti-hnRNP-R antibodies (Rossoll et al., 2002; 1:1,000), anti-actin (Roche, Bale, Switzerland, 1:200) and β-actin (Abcam, Cambridge, UK; 1:1,000) were used. Since in neurites preferably β-actin is localized, the results are similar for anti-actin and specifically anti-β-actin.

[3] = test system: 3′ untranslated region of β-actin mRNA; test: Binding of radioactively marked β-actin mRNA to immunoprecipitated HA-marked hnRNP-R (filter, PSL); details: HA-marked protein from transfected HEK 293 cells, 32P-marked RNA, 30 minutes at room temperature
Protocol: The untranslated 3′ regions of β-actin from the stop codon to the poly-A sequence or the so-called zipcode region (Kislauskis et al., 1994) were amplified by RT-PCR and cloned into a plasmid with the binding site for the T7 RNA polymerase (pTZ19). Optionally, a poly-A tail of 30 nucleotides was added. (Used primers:
actinUTRfwd […], actinUTRpolyAfullrev, ATGAGAATTC-T(30)-[…], actinUTRpolyAziprev, ATGA-GAATTC-T(30)-[…], actinUTRfullrev, […]). The plasmids were linearized by digestion with EcoRI at the 3′ end, and were purified. […]
A cell line from human embryonic kidney cells (HEK 293) was transfected with expression constructs marked by HA epitope for the wildtype forms or mutated versions of Smn or hnRNP-R. After 48 hours, the cells were lysated in lysis buffer (25 mM Tris-HCl pH=8.0, 137 mM NaCl, 2 mM EGTA, 2 mM EDTA, 10% glycerol, 1% Triton X-100, 0.05% β-mercaptoethanol and protease inhibitors; Roche, Bale, Switzerland), and the HA-marked proteins were purifies by immunoprecipitation with anti-HA agarose (HA.11, Covance, Denver, Pa., USA). […] These filters were exposed with phosphoimager plates (BAS-2500, Photo Film Europe GmbH, Duesseldorf, Germany), and the bound radioactivity was measured as photo-stimulating luminescence (PSL) by means of the AIDA software package (Raytest, Straubenhardt, Germany).

Row | Molecule | effect on neurite growth (PC12 cells [1]) | neurite length versus control cell lines (untransfected or empty plasmid) (PC12 cells [2]) | β-actin staining in the growth zones of the neurites (PC12 cell lines) | binding to the 3′ untranslated region of β-actin mRNA [3]
1 | SmnY272C: Smn with a point mutation, no interaction with hnRNP-R, also found in SMA patients | no stimulating effect |  |  | 
2 | B1 |  | three times longer neurites | strong concentration of β-actin | bind to the 3′ untranslated region of β-actin mRNA
3 | B2 |  | three times longer neurites |  | 
